What was measured:
[1] = system: folate receptor-positive cells; assay: FRES uptake in SCI: NIR imaging of transverse spinal cord sections, conjugate vs unconjugated dye; type: in vivo, Sprague Dawley rats; settings: for NIR signal in the spinal cords: SCI rats, injected day 7 after injury, imaged day 8, conjugate vs unconjugated NIR dye
Protocol: Adult male Sprague Dawley rats were given a moderate grade SCI. The rats were injected with OTL38 or unconjugated NIR dye on day 7 after injury. On day 8, the spinal cords were removed and imaged for NIR signal.
FIGS. 11A-11B show transverse spinal cord sections of the rostral portions (FIG. 11A) and epicenters (FIG. 11B) of a rat with SCI and injected seven days after injury with OTL38. […] The results are shown in FIG. 11D, which is a bar graph of mean fluorescence intensity vs. rostral portion and epicenter showing OTL38 uptake (students t-test, **p<0.01).

[2] = system: folate receptor-positive cells; assay: FRES uptake in spinal cord contusion injury (SCI): ex vivo NIR imaging of spinal cords; parameters: species or system Sprague Dawley rats; settings: SCI rats
Protocol: Adult male Sprague Dawley rats were given a moderate grade spinal cord contusion injury (SCI). The rats were injected with OTL38 or simultaneously with OTL38 and Fol-Glu on day 7 after injury. On day 8, the spinal cords were removed and imaged for NIR signal.
NR signal is represented by green and red colors, with red showing areas of high intensity. Blue arrows point to the epicenter of the SCI. “R” indicates the rostral portion of the spinal cord.

[3] = target: T1, folate receptors on cells of the choroid plexus (Mus musculus, UniProt P35846); assay: Transport of folate conjugates across blood-cerebrospinal fluid barrier: NIR imaging of brain/choroid plexus; type: in vivo, B6 male mice
T1 construct: the uptake of OTL38 is mediated by folate receptors on cells of the choroid plexus; from tissue; host or cells: choroid plexus of live B6 male mice (in vivo, ex vivo NIR imaging of brain)
Source text: Corresponding ventral side of the spinal cords are shown to the left of each brain. […] Green fluorescence indicates OTL38 signal. […] In the middle column (OTL38+Fol-Glu, n=4) minimal uptake is observed. In the far-right corner, Control (non-injected, n=1), no signal is observed. FIG. 9 is a graph of mean fluorescent intensity vs. time for CSF and blood. n=1-4 rats/timepoint.
B6 male mice were given an intravenous tail injection of a folate-fluorescent near infrared (NIR) dye conjugate (i.e., OTL38) and imaged. […] Corresponding ventral side of the spinal cords are shown to the left of each brain. […] Green fluorescence indicates OTL38 signal. […] In the middle column (OTL38+Fol-Glu, n=4) minimal uptake is observed. In the far right corner, Control (non-injected, n=1), no signal is observed.

[4] = system: eye; settings: mouse, in vivo
Protocol: Given the extensive time that OTL38 remained in the eyes, signal in the presence of the folate competitor folate-glucosamine (Fol-Glc) was tested. Healthy, wild-type mice were injected with 10 nmols OTL38. Some mice were subsequently injected with Fol-Glc. All mice were subsequently sacrificed and examined in comparison to noninjected mice.

[5] = system: rats with controlled cortical impact (CCI) injuries; assay: FRES uptake in controlled cortical impact (CCI) injury: NIR imaging of the cortex surface; type: in vivo, Sprague Dawley rats; settings: intravenous injection ten days after CCI injury, imaged next day
Source text: Adult male Sprague Dawley rats were given moderate grade controlled cortical impact (CCI) injuries. This injury represents concussion of the brain cortex, which is a more common injury in humans than laceration of the brain cortex. The impactor was circular and 6 mm in diameter. The rats were intravenously injected with OTL38 ten days after injury. The next day the rats were sacrificed, and the surfaces of the cortexes were imaged. […] The yellow arrow points to signal on the dorsal surface of the spinal cord.

[6] = Persistence of folate conjugate: NIR signal in blood and CSF over time; type: in vivo, Sprague Dawley rats; settings: rats
Protocol: Adult male Sprague Dawley rats were injected with OTL38. Blood and cerebrospinal fluid (CSF) were then extracted at the same time at various timepoints and imaged. […] The data also indicate that the exposure of the CNS to the payload is extended over time.
FIG. 9 is a graph of mean fluorescent intensity vs. time for CSF and blood. n=1-4 rats/timepoint.

[7] = system: rats with cortex laceration of the left hemisphere; assay: FRES uptake in cortex laceration: NIR imaging of the cortex; type: in vivo, Sprague Dawley rats; settings: injected seven days after cortex laceration, brains removed next day
Protocol: Adult male Sprague Dawley rats were given brain injuries by cortex laceration of the left hemisphere using a small ophthalmic knife. Seven days after injury, the rats were injected with OTL38. The brains were removed the next day, and the cortexes were imaged.
FIGS. 13A-13B show a precise surface laceration injury in the cortex of the left hemisphere of the brain. FIG. 13A is a cartoon indicating the area of injury (blue circle) and the area imaged (blue rectangle). […] The right hemisphere cortex served as an internal control (uninjured, no signal).
Choroid plexus cells in the ventricles produce CSF and are the site of FRES release into the subarachnoid space, where the brain and spinal cord continue to be perfused. The 4th ventricle and lateral recess contain choroid plexus cells and are the site of outflow for newly produced CSF. The intense signal below the cerebellum (blue arrow) is a result of concentrated choroid plexus cells and FRES/new CSF production and entry for CNS perfusion. […] The opposite hemisphere represents an internal control with no areas of enhanced signal.

[8] = system: eye; settings: rat, in vivo
Protocol: An adult male Sprague Dawley rat was intravenously injected with OTL38 and imaged 24 hours later. […] Red and green colors indicate signal from the dye, with red showing the most intense regions.

T1 sequence (P35846 25-232): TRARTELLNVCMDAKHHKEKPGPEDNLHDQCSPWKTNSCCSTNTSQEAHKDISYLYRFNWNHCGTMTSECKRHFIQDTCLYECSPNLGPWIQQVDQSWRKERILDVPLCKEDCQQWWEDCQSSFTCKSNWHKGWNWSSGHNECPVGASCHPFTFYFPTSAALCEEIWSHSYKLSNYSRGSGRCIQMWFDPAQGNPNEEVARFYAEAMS

Molecule | NIR signal in the spinal cords [1] | Mean fluorescence intensity, epicenter vs rostral region ([1]; SCI rat, transverse spinal cord sections, students t-test **p<0.01) | NIR signal in the spinal cords, injected simultaneously with Fol-Glu ([2]; OTL38+Fol-Glu on day 7 after injury, imaged day 8) | NIR signal in the spinal cords ([2]; injected day 7 after injury, spinal cords imaged day 8) | NIR signal in the choroid plexus, co-injected with Fol-Glu ([3]; mice co-injected with OTL38 and folate-glucosamine conjugate (Fol-Glu), competitor for folate receptors) | NIR signal in the choroid plexus ([3]; mice, intravenous tail injection, 24 hours after injection) | OTL38 signal (mean fluorescence intensity) in eyes after administration of Fol-Glc [4] | NIR signal at the CCI injury [5] | NIR signal in the blood relative to that of the CSF ([6]; four hours post-injection and all subsequent timepoints) | NIR signal in the blood relative to that of the CSF ([6]; two hours post-injection, blood exceeded CSF) | NIR signal around the choroid plexus [7] | NIR signal at the cortex injury ([7]; uninjured right hemisphere no signal) | Uptake in the retina, eye slices [8] | NIR signal at the eye, live imaging ([8]; iv)
CC1(C)C(/C=C/C2=C(Cl)C(=C/C=C3/N(CCCCS(=O)(=O)[O-])c4ccc(S(=O)(=O)[O-])cc4C3(C)C)/CCC2)=[N+](CCCCS(=O)(=O)[O-])c2ccc(S(=O)(=O)[O-])cc21.[Na+].[Na+].[Na+] [unconjugated NIR dye] | lack of signal |  |  |  |  |  |  |  |  |  |  |  |  | 
OTL38 | Signal was observed | significant increase in signal in the epicenter as compared to the rostral region | lack of signal | Strong signal | noticeable reduction in signal | Strong signal | reduced | positive targeting of the 6 mm circular injury | dropped and remained lower than that of the CSF | nearly two-fold | Increased signal around the choroid plexus | enhanced signal around the injury area | strong OTL38 uptake in the area of the retina | intense red signal at the eye

Source: patent US20240058478A1, “FOLATE RECEPTOR-TARGETED CONJUGATES, COMPOSITIONS, AND DELIVERY TO THE CENTRAL NERVOUS SYSTEM” (PURDUE RESEARCH FOUNDATION, priority 2021, published 2024)
